According to the Human Domainome abundance scans (Beltran et al. 2025):
± gives the uncertainty stated by the source.

Assay: abundance fitness (aPCA) (normalised: wild type 0, dead -1); higher = more abundant; growth selection in yeast, the domain comes from the species named
Conditions: Homo sapiens
“NEDD4-like E3 ubiquitin-protein ligase WWP2 P444H, O00308” gave an abundance fitness of 0.015 ± 0.037. For “NEDD4-like E3 ubiquitin-protein ligase WWP2 P444I, O00308”, the abundance fitness was -0.2 ± 0.049. Substance “NEDD4-like E3 ubiquitin-protein ligase WWP2 P444K, O00308” has an abundance fitness of 0.098 ± 0.071. “NEDD4-like E3 ubiquitin-protein ligase WWP2 P444L, O00308” showed an abundance fitness of 0.036 ± 0.053. Substance “NEDD4-like E3 ubiquitin-protein ligase WWP2 P444M, O00308” has an abundance fitness of 0.09 ± 0.062. “NEDD4-like E3 ubiquitin-protein ligase WWP2 P444N, O00308” showed an abundance fitness of 0.105 ± 0.038. “NEDD4-like E3 ubiquitin-protein ligase WWP2 P444Q, O00308” showed an abundance fitness of 0.065 ± 0.068. For “NEDD4-like E3 ubiquitin-protein ligase WWP2 P444R, O00308”, the abundance fitness was 0.083 ± 0.041. “NEDD4-like E3 ubiquitin-protein ligase WWP2 P444T, O00308” showed an abundance fitness of 0.045 ± 0.063. “NEDD4-like E3 ubiquitin-protein ligase WWP2 P444V, O00308” gave an abundance fitness of 0.065 ± 0.058. Substance “NEDD4-like E3 ubiquitin-protein ligase WWP2 P444W, O00308” has an abundance fitness of -0.059 ± 0.05. “NEDD4-like E3 ubiquitin-protein ligase WWP2 P447A, O00308” showed an abundance fitness of -0.234 ± 0.043. For “NEDD4-like E3 ubiquitin-protein ligase WWP2 P447C, O00308”, the abundance fitness was -0.458 ± 0.07. For “NEDD4-like E3 ubiquitin-protein ligase WWP2 P447D, O00308”, the abundance fitness was -0.304 ± 0.083. “NEDD4-like E3 ubiquitin-protein ligase WWP2 P447E, O00308” showed an abundance fitness of -0.185 ± 0.062. Work on “NEDD4-like E3 ubiquitin-protein ligase WWP2 P447F, O00308” yielded an abundance fitness of -0.331 ± 0.088. With “NEDD4-like E3 ubiquitin-protein ligase WWP2 P447H, O00308” the abundance fitness was -0.381 ± 0.075. Substance “NEDD4-like E3 ubiquitin-protein ligase WWP2 P447I, O00308” has an abundance fitness of -0.433 ± 0.051. “NEDD4-like E3 ubiquitin-protein ligase WWP2 P447K, O00308” gave an abundance fitness of -0.17 ± 0.052. With “NEDD4-like E3 ubiquitin-protein ligase WWP2 P447L, O00308” the abundance fitness was -0.228 ± 0.048. “NEDD4-like E3 ubiquitin-protein ligase WWP2 P447M, O00308” showed an abundance fitness of -0.203 ± 0.045. Substance “NEDD4-like E3 ubiquitin-protein ligase WWP2 P447N, O00308” has an abundance fitness of -0.11 ± 0.075. Substance “NEDD4-like E3 ubiquitin-protein ligase WWP2 P447Q, O00308” has an abundance fitness of -0.289 ± 0.07. “NEDD4-like E3 ubiquitin-protein ligase WWP2 P447R, O00308” gave an abundance fitness of -0.316 ± 0.04. For “NEDD4-like E3 ubiquitin-protein ligase WWP2 P447S, O00308”, the abundance fitness was -0.332 ± 0.046. Work on “NEDD4-like E3 ubiquitin-protein ligase WWP2 P447T, O00308” yielded an abundance fitness of -0.541 ± 0.067. For “NEDD4-like E3 ubiquitin-protein ligase WWP2 P447V, O00308”, the abundance fitness was -0.633 ± 0.04. For “NEDD4-like E3 ubiquitin-protein ligase WWP2 P447W, O00308”, the abundance fitness was -0.659 ± 0.07. “NEDD4-like E3 ubiquitin-protein ligase WWP2 P447Y, O00308” showed an abundance fitness of -0.5 ± 0.081. Work on “NEDD4-like E3 ubiquitin-protein ligase WWP2 P448A, O00308” yielded an abundance fitness of 0.008 ± 0.044. For “NEDD4-like E3 ubiquitin-protein ligase WWP2 P448C, O00308”, the abundance fitness was -0.216 ± 0.074. For “NEDD4-like E3 ubiquitin-protein ligase WWP2 P448D, O00308”, the abundance fitness was 0.09 ± 0.059. Substance “NEDD4-like E3 ubiquitin-protein ligase WWP2 P448E, O00308” has an abundance fitness of 0.045 ± 0.062. For “NEDD4-like E3 ubiquitin-protein ligase WWP2 P448F, O00308”, the abundance fitness was 0.015 ± 0.04. For “NEDD4-like E3 ubiquitin-protein ligase WWP2 P448G, O00308”, the abundance fitness was -0.046 ± 0.054. Substance “NEDD4-like E3 ubiquitin-protein ligase WWP2 P448H, O00308” has an abundance fitness of 0.043 ± 0.046. In the case of “NEDD4-like E3 ubiquitin-protein ligase WWP2 P448I, O00308”, the abundance fitness is reported as -0.13 ± 0.071. For “NEDD4-like E3 ubiquitin-protein ligase WWP2 P448K, O00308”, the abundance fitness was 0.108 ± 0.067. Substance “NEDD4-like E3 ubiquitin-protein ligase WWP2 P448L, O00308” has an abundance fitness of -0.013 ± 0.038. With “NEDD4-like E3 ubiquitin-protein ligase WWP2 P448M, O00308” the abundance fitness was 0.088 ± 0.068. In the case of “NEDD4-like E3 ubiquitin-protein ligase WWP2 P448N, O00308”, the abundance fitness is reported as 0.071 ± 0.072. For “NEDD4-like E3 ubiquitin-protein ligase WWP2 P448Q, O00308”, the abundance fitness was 0.029 ± 0.054. In the case of “NEDD4-like E3 ubiquitin-protein ligase WWP2 P448R, O00308”, the abundance fitness is reported as -0.033 ± 0.047. In the case of “NEDD4-like E3 ubiquitin-protein ligase WWP2 P448S, O00308”, the abundance fitness is reported as -0.001 ± 0.037. With “NEDD4-like E3 ubiquitin-protein ligase WWP2 P448T, O00308” the abundance fitness was 0.001 ± 0.05. In the case of “NEDD4-like E3 ubiquitin-protein ligase WWP2 P448V, O00308”, the abundance fitness is reported as 0.023 ± 0.055. “NEDD4-like E3 ubiquitin-protein ligase WWP2 P448W, O00308” showed an abundance fitness of -0.109 ± 0.062. Work on “NEDD4-like E3 ubiquitin-protein ligase WWP2 P448Y, O00308” yielded an abundance fitness of -0.149 ± 0.056. “NEDD4-like E3 ubiquitin-protein ligase WWP2 P475A, O00308” showed an abundance fitness of -0.837 ± 0.037. “NEDD4-like E3 ubiquitin-protein ligase WWP2 P475C, O00308” showed an abundance fitness of -1.06 ± 0.16. Substance “NEDD4-like E3 ubiquitin-protein ligase WWP2 P475D, O00308” has an abundance fitness of -0.867 ± 0.14. “NEDD4-like E3 ubiquitin-protein ligase WWP2 P475E, O00308” gave an abundance fitness of -0.785 ± 0.15. “NEDD4-like E3 ubiquitin-protein ligase WWP2 P475F, O00308” showed an abundance fitness of -0.88 ± 0.1. With “NEDD4-like E3 ubiquitin-protein ligase WWP2 P475G, O00308” the abundance fitness was -1 ± 0.042. For “NEDD4-like E3 ubiquitin-protein ligase WWP2 P475H, O00308”, the abundance fitness was -0.813 ± 0.15. “NEDD4-like E3 ubiquitin-protein ligase WWP2 P475I, O00308” showed an abundance fitness of -0.523 ± 0.11. With “NEDD4-like E3 ubiquitin-protein ligase WWP2 P475K, O00308” the abundance fitness was -1.24 ± 0.27. Substance “NEDD4-like E3 ubiquitin-protein ligase WWP2 P475L, O00308” has an abundance fitness of -0.876 ± 0.04. “NEDD4-like E3 ubiquitin-protein ligase WWP2 P475M, O00308” showed an abundance fitness of -0.574 ± 0.062. For “NEDD4-like E3 ubiquitin-protein ligase WWP2 P475N, O00308”, the abundance fitness was -0.941 ± 0.13. With “NEDD4-like E3 ubiquitin-protein ligase WWP2 P475Q, O00308” the abundance fitness was -0.836 ± 0.11. Work on “NEDD4-like E3 ubiquitin-protein ligase WWP2 P475R, O00308” yielded an abundance fitness of -0.933 ± 0.041. “NEDD4-like E3 ubiquitin-protein ligase WWP2 P475S, O00308” gave an abundance fitness of -0.852 ± 0.054. “NEDD4-like E3 ubiquitin-protein ligase WWP2 P475T, O00308” showed an abundance fitness of -1.36 ± 0.2. In the case of “NEDD4-like E3 ubiquitin-protein ligase WWP2 P475V, O00308”, the abundance fitness is reported as -0.631 ± 0.038. Substance “NEDD4-like E3 ubiquitin-protein ligase WWP2 P475W, O00308” has an abundance fitness of -0.829 ± 0.067. “NEDD4-like E3 ubiquitin-protein ligase WWP2 P475Y, O00308” gave an abundance fitness of -0.984 ± 0.15. Substance “NEDD4-like E3 ubiquitin-protein ligase WWP2 P477A, O00308” has an abundance fitness of 0.076 ± 0.052. Substance “NEDD4-like E3 ubiquitin-protein ligase WWP2 P477C, O00308” has an abundance fitness of -0.084 ± 0.066. For “NEDD4-like E3 ubiquitin-protein ligase WWP2 P477D, O00308”, the abundance fitness was -0.009 ± 0.059. With “NEDD4-like E3 ubiquitin-protein ligase WWP2 P477E, O00308” the abundance fitness was 0.001 ± 0.05. In the case of “NEDD4-like E3 ubiquitin-protein ligase WWP2 P477F, O00308”, the abundance fitness is reported as -0.091 ± 0.073. Substance “NEDD4-like E3 ubiquitin-protein ligase WWP2 P477G, O00308” has an abundance fitness of -0.019 ± 0.031. “NEDD4-like E3 ubiquitin-protein ligase WWP2 P477I, O00308” gave an abundance fitness of 0.13 ± 0.075. Work on “NEDD4-like E3 ubiquitin-protein ligase WWP2 P477K, O00308” yielded an abundance fitness of -0.037 ± 0.052. In the case of “NEDD4-like E3 ubiquitin-protein ligase WWP2 P477L, O00308”, the abundance fitness is reported as -0.038 ± 0.034. “NEDD4-like E3 ubiquitin-protein ligase WWP2 P477M, O00308” showed an abundance fitness of -0.011 ± 0.05. For “NEDD4-like E3 ubiquitin-protein ligase WWP2 P477N, O00308”, the abundance fitness was -0.081 ± 0.053. In the case of “NEDD4-like E3 ubiquitin-protein ligase WWP2 P477Q, O00308”, the abundance fitness is reported as -0.394 ± 0.1. For “NEDD4-like E3 ubiquitin-protein ligase WWP2 P477S, O00308”, the abundance fitness was -0.02 ± 0.037. Work on “NEDD4-like E3 ubiquitin-protein ligase WWP2 P477T, O00308” yielded an abundance fitness of -0.215 ± 0.068. Work on “NEDD4-like E3 ubiquitin-protein ligase WWP2 P477V, O00308” yielded an abundance fitness of 0.037 ± 0.034. For “NEDD4-like E3 ubiquitin-protein ligase WWP2 P477W, O00308”, the abundance fitness was -0.138 ± 0.048. “NEDD4-like E3 ubiquitin-protein ligase WWP2 P477Y, O00308” showed an abundance fitness of -0.145 ± 0.063. Work on “NEDD4-like E3 ubiquitin-protein ligase WWP2 P488A, O00308” yielded an abundance fitness of -0.31 ± 0.037. Substance “NEDD4-like E3 ubiquitin-protein ligase WWP2 P488C, O00308” has an abundance fitness of -0.049 ± 0.058. In the case of “NEDD4-like E3 ubiquitin-protein ligase WWP2 P488D, O00308”, the abundance fitness is reported as 0.033 ± 0.053. For “NEDD4-like E3 ubiquitin-protein ligase WWP2 P488E, O00308”, the abundance fitness was 0.018 ± 0.055.
